Changes are numbered by the printed parent chain.
B1: Clone 8.17 (VNAR)
VNAR: ARVDQTPQTITKETGESLTINCVLRDSNCALPSTYWYRKKSGSTNEESISKGGRYVETVNSGSKSFSLRINDLTVEDSGTYRCKVIAYRKSIVRGCNYRKHDVYGDGTAVTVNA
B2: Clone 8.137 (VNAR)
VNAR: B1 VNAR with Y88Q, R89L, K90S, V93L, R99F, K100G, H101K
B3: Clone 8.97 (VNAR)
VNAR: B1 VNAR with Y88Q, R89L, K90S, V93L, R99N, K100I, H101D

Each binder was assayed against recombinant mouse TfR-1 (mouse) (UniProt Q62351) (assay: phage ELISA).
recombinant mouse TfR-1 (mouse), sequence (Q62351 89-763 limits assumed): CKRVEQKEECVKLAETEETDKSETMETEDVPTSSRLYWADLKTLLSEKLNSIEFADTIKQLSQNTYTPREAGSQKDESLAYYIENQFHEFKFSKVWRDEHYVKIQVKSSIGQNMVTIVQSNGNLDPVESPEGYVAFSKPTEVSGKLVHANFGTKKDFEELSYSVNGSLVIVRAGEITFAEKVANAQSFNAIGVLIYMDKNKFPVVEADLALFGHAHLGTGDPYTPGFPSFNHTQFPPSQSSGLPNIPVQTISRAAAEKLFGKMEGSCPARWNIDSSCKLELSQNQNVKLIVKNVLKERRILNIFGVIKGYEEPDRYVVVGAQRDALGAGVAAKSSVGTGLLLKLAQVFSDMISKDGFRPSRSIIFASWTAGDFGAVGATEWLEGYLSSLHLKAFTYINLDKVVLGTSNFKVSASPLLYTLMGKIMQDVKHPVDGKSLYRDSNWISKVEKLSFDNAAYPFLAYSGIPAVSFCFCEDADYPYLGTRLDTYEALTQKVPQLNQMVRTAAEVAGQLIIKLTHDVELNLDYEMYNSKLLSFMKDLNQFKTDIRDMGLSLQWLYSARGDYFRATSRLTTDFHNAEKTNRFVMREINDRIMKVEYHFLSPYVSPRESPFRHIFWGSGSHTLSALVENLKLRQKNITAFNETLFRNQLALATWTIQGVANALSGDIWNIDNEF

| A450 | Binder |
| --- | --- |
| 0.091 A450 | B1 |
| 0.046 A450 | B2 |
| 0.053 A450 | B3 |

Source: US20210395381A1
